Patent US20110263454A1, “Methods of Identifying Functional Characteristics of Promoters, Transcription Modifying Proteins and Transcription Modulating Agents” (Salk Institute for Biological Studies, priority 2008, published 2011)

Legend:
hG6PD promoter = test: NHR-promoter luciferase screen, hG6PD promoter; type: cell-based, human; conditions: for Luc. act., normalized to lacZ / Normalized Luc. act., normalized to control: G6PD promoter reporter, co-transfected HR, without or with its ligand; for Normalized Luc. act., normalized to control: relative to control; for luciferase activity normalized to lacZ activity and to a control, hG6PD: hG6PD promoter-luciferase, CV-1 cells, NHR +/- ligand, control = 1.00
In short: (§1)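 CV-1 cells were co-transfected with 50 ng NHR (homodimer or NHR/RXR heterodimer), 100 ng promoter-luciferase construct and 50 ng LacZ. Luciferase was normalized to LacZ and to a no-NHR/no-ligand control.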

mUCP2 promoter = test: NHR-promoter luciferase screen, mUCP2 promoter; type: cell-based, mouse; conditions: for Luc. act., normalized to lacZ / Normalized Luc. act., normalized to control: mUCP2 promoter reporter, co-transfected HR, with or without its ligand; for Normalized Luc. act., normalized to control: relative to control; for luciferase activity normalized to lacZ activity and to a control, mUCP2: mUCP2 promoter-luciferase, CV-1 cells, NHR +/- ligand, control = 1.00
In short: as §1

hIRF7 promoter = test: NHR-promoter luciferase screen, hIRF7 promoter; type: cell-based, human; conditions: for Normalized Luc. act., normalized to control / Luc. act., normalized to lacZ: IRF7 promoter reporter; for Normalized Luc. act., normalized to control: HR without or with its ligand, relative to control; for Luc. act., normalized to lacZ: hormone receptor (HR) without or with its ligand; for hIRF7 promoter reporter activity: transcription factor +/- ligand, control = 1.00
In short: as §1

hCYP3A4 promoter = test: NHR-promoter luciferase screen, hCYP3A4 promoter; type: cell-based, human; conditions: for Luc. act., normalized to lacZ / Normalized Luc. act., normalized to control: CYP3A4 promoter, HR/ligand component; for hCYP3A4 promoter reporter activity: transcription factor +/- ligand, control = 1.00
In short: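 Luciferase reporter read-out after co-expression in CV-1 cells of V5H6-tagged receptor (alone or with RXR), the promoter construct and LacZ. Values are luciferase/LacZ relative to a control lacking NHR or ligand; orphan receptors tested ligand-free.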

RevErba promoter = test: NHR-promoter luciferase screen, RevErba (RVRa) promoter; type: cell-based; design: key to mRevErba promoter reporter activity / Normalized Luc. act., normalized to control: luciferase activity normalized to lacZ and to control (no NHR/ligand); conditions: for Luc. act., normalized to lacZ / Normalized Luc. act., normalized to control / normalized Luc. act. on a logarithmic scale (column without head, Table 33): RVRa promoter; for Luc. act., normalized to lacZ / Normalized Luc. act., normalized to control: HR component without or with ligand; for normalized Luc. act. on a logarithmic scale (column without head, Table 33): log10 of activity normalized to control; for mRevErba promoter reporter activity: transcription factor +/- ligand, control = 1.00
In short: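 Reporter readout: RevErbα promoter-driven luciferase, corrected for LacZ transfection efficiency and expressed relative to a no-receptor or no-ligand control. Receptors (V5H6-tagged, pcDNA3.1), alone or with RXR, plus any ligand, were expressed in CV-1 cells.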

hTNFa promoter = test: NHR-promoter luciferase screen, hTNFa promoter; type: cell-based, human; conditions: for Luc. act., normalized to lacZ / Normalized Luc. act., normalized to control: TNFa promoter, HR component without or with ligand; for hTNFa promoter reporter activity: transcription factor +/- ligand, control = 1.00
In short: as §1

B1: FXR: Farnesoid X Receptor (NR1H4), cDNA driver (protein, UniProt Q96RI1 1-486, looked up)
Bile acid receptor: MVMQFQGLENPIQISPHCSCTPSGFFMEMMSMKPAKGVLTEQVAGPLGQNLEVEPYSQYSNVQFPQVQPQISSSSYYSNLGFYPQQPEEWYSPGIYELRRMPAETLYQGETEVAEMPVTKKPRMGASAGRIKGDELCVVCGDRASGYHYNALTCEGCKGFFRRSITKNAVYKCKNGGNCVMDMYMRRKCQECRLRKCKEMGMLAECMYTGLLTEIQCKSKRLRKNVKQHADQTVNEDSEGRDLRQVTSTTKSCREKTELTPDQQTLLHFIMDSYNKQRMPQEITNKILKEEFSAEENFLILTEMATNHVQVLVEFTKKLPGFQTLDHEDQIALLKGSAVEAMFLRSAEIFNKKLPSGHSDLLEERIRNSGISDEYITPMFSFYKSIGELKMTQEEYALLTAIVILSPDRQYIKDREAVEKLQEPLLDVLQKLCKIHQPENPQHFACLLGRLTELRTFNHHHAEMLMSWRVNDHKFTPLLCEIWDVQ
Luc. act., normalized to lacZ (hG6PD promoter): 42.6 | Normalized Luc. act., normalized to control (hG6PD promoter): 1.1 | luciferase activity normalized to lacZ activity and to a control, hG6PD (hG6PD promoter): 1.14 | Luc. act., normalized to lacZ (mUCP2 promoter): 111.6 | Normalized Luc. act., normalized to control (mUCP2 promoter): 1.0 | luciferase activity normalized to lacZ activity and to a control, mUCP2 (mUCP2 promoter): 1.02 | Normalized Luc. act., normalized to control (hIRF7 promoter): 1.6 | Luc. act., normalized to lacZ (hIRF7 promoter): 41.8 | hIRF7 promoter reporter activity (hIRF7 promoter): 1.59 | Luc. act., normalized to lacZ (hCYP3A4 promoter): 4.2 | Normalized Luc. act., normalized to control (hCYP3A4 promoter): 0.9 | hCYP3A4 promoter reporter activity (hCYP3A4 promoter): 0.93 | Luc. act., normalized to lacZ (RevErba promoter): 31.7 | Normalized Luc. act., normalized to control (RevErba promoter): 1.1 | normalized Luc. act. on a logarithmic scale (column without head, Table 33) (RevErba promoter): 0.05 | mRevErba promoter reporter activity (RevErba promoter): 1.13 | Luc. act., normalized to lacZ (hTNFa promoter): 974.6 | Normalized Luc. act., normalized to control (hTNFa promoter): 1.0 | hTNFa promoter reporter activity (hTNFa promoter): 0.99

B2: PXR: Pregnane X Receptor (NR1I2), cDNA driver (protein, UniProt O75469 1-434, looked up)
Nuclear receptor subfamily 1 …: MEVRPKESWNHADFVHCEDTESVPGKPSVNADEEVGGPQICRVCGDKATGYHFNVMTCEGCKGFFRRAMKRNARLRCPFRKGACEITRKTRRQCQACRLRKCLESGMKKEMIMSDEAVEERRALIKRKKSERTGTQPLGVQGLTEEQRMMIRELMDAQMKTFDTTFSHFKNFRLPGVLSSGCELPESLQAPSREEAAKWSQVRKDLCSLKVSLQLRGEDGSVWNYKPPADSGGKEIFSLLPHMADMSTYMFKGIISFAKVISYFRDLPIEDQISLLKGAAFELCQLRFNTVFNAETGTWECGRLSYCLEDTAGGFQQLLLEPMLKFHYMLKKLQLHEEEYVLMQAISLFSPDRPGVLQHRVVDQLQEQFAITLKSYIECNRPQPAHRFLFLKIMAMLTELRSINAQHTQRLLRIQDIHPFATPLMQELFGITGS
Luc. act., normalized to lacZ (hG6PD promoter): 42.5 | Normalized Luc. act., normalized to control (hG6PD promoter): 1.1 | luciferase activity normalized to lacZ activity and to a control, hG6PD (hG6PD promoter): 1.14 | Luc. act., normalized to lacZ (mUCP2 promoter): 119.1 | Normalized Luc. act., normalized to control (mUCP2 promoter): 1.1 | luciferase activity normalized to lacZ activity and to a control, mUCP2 (mUCP2 promoter): 1.08 | Normalized Luc. act., normalized to control (hIRF7 promoter): 1.4 | Luc. act., normalized to lacZ (hIRF7 promoter): 36.3 | hIRF7 promoter reporter activity (hIRF7 promoter): 1.38 | Luc. act., normalized to lacZ (hCYP3A4 promoter): 8.8 | Normalized Luc. act., normalized to control (hCYP3A4 promoter): 2.0 | hCYP3A4 promoter reporter activity (hCYP3A4 promoter): 1.98 | Luc. act., normalized to lacZ (RevErba promoter): 42.5 | Normalized Luc. act., normalized to control (RevErba promoter): 1.5 | normalized Luc. act. on a logarithmic scale (column without head, Table 33) (RevErba promoter): 0.18 | mRevErba promoter reporter activity (RevErba promoter): 1.52 | Luc. act., normalized to lacZ (hTNFa promoter): 1152.4 | Normalized Luc. act., normalized to control (hTNFa promoter): 1.2 | hTNFa promoter reporter activity (hTNFa promoter): 1.17
